Assay: yeast display, Sf9 membrane polyspecificity reagent, FACS + sequencing; frameworks hold sequencing errors
Summary of the method: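 A nanobody's polyreactivity label depends on the gate it was sorted from. Yeast display cells were stained with 10% biotinylated, detergent-solubilized Sf9 membrane reagent for 1 hour at 4 °C, enriched on streptavidin microbeads and sorted by FACS. The low and high (top ~1%) gates were set on anti-HA fluorescence for expression and streptavidin fluorescence for reagent binding.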

| Sequence | polyreactivity (PSR sort gate) |
| --- | --- |
| QVQLVESGGGLVQAGGSLRLSCADSGRIIQYNAMGWYRQAPGKERDLDAAISYRGGSTYYADSVKGRYTISRDNAKNTVYLQMNSLKPEDTAVYYCAVEYPVYYYVEYDYWGQGTQVTVSS | high polyreactivity |
| QVQLVESGGGLVQAGGSLRLSCADSGRNFYIYAMGWYRKAPGKERELVAAISISGSTYYADSVKGRFTISRDNAKNTVFLQMNSLKPEDTAVYYCAARDPGVAVGAAFDSWGQGTQVTVSS | low polyreactivity |
| QVQLVESGGGLVQAGGSLRLSCADSGRNFYYYAMGWYRQAPGKERELVAAITSGGRTNYADSVKGRFTISRDNAKNNVYLQMNSLKPEDTAVYYGAATSKYKVRYSRYYYWGQGTQVTVSS | high polyreactivity |
| QVQLVESGGGLVQAGGSLRLSCADSGRTFFYNGMGWYRQAPGKERELVAAISGSGSRTYYADSVKGRFTISRDNAKNTVYLQMNSLKPEDTAVYYCAATRVISHYRFDYWGQGTQVTVSS | high polyreactivity |
| QVQLVESGGGLVQAGGSLRLSCADSGRTFGGYAMGWYRQAPGKQRELVASITWSGGSTYYADSVKGRFTISRDNAKNNVYLQMNSLKPEDTAVYYCGARTYQSRSTRMDYWGQGTQVTVSS | low polyreactivity |
| QVQLVESGGGLVQAGGSLRLSCADSGRTFKYYAMGWYRQAPGKARELVAAIRSTGGSKYYADSVKGRFTISRDNAKNTVYLQMNSLKPEDTAVYYCNARRYPRYVFSRYDYWGQGTQVTVSS | high polyreactivity |
| QVQLVESGGGLVQAGGSLRLSCADSGRTFNYYDMGWYRQAPGKERELVASITGSGGNTYYADSVKGRFTFSRDNAKNTVYLQMNSLKPEDTAVYYCAKAIGNFLYYYWLYHSSYEYDYWGQGTQVTVSS | low polyreactivity |
| QVQLVESGGGLVQAGGSLRLSCADSGRTFRANAMGWYRQAPGKERELVAAITSTGDRTYYADSVKGRFTISRDNAKNTVYLQMNSLKPEDTAVYYGNAVYDLYHYWKFYYWGQGTQVTVSS | low polyreactivity |
| QVQLVESGGGLVQAGGSLRLSCADSGRTFRIYAMGWYRQAPGKERELVARITKRAGSTYYADSVKGRFTISRDNAKNTVYLQMNSLKPEDTAVYYCAATHYQWRGRYGYWRQGTQVTVSS | high polyreactivity |
| QVQLVESGGGLVQAGGSLRLSCADSGRTFRYYAMGWYRQAPGKERELVAAITSGGSTYYADSVKGRFTISRDNAKNTVYLQMNSLKPEDTAVYYCAAARYEPFIYDYGYWGQGTQVTVSS | low polyreactivity |
| QVQLVESGGGLVQAGGSLRLSCADSGRTFWSNSMGWYRQAPGKERELVARIDSTYYADSVKGRFTISRDNAKNTVYLQMNSLKPEDTAFYYCNADTIYYAGDFRYDYWGQGTQVTVSS | low polyreactivity |
| QVQLVESGGGLVQAGGSLRLSCADSGRTFYHDTMGWYRQAPGKERELVARITRRVGSTYYADSVKGRFTISRDNAKNTVYLQMNSLKPEDTAVYYCNAKSGLYRYLLDYWGQGTQVTVSS | high polyreactivity |
| QVQLVESGGGLVQAGGSLRLSCADSGRTFYSYAMGWYRQAPGKERELVAAISASGGRTYYADSVKGRFTISRDNAKNTVYLQMNSLKPEDTAVYYCAAYVSGYRWGYDYWGQGTQVTVSS | high polyreactivity |
| QVQLVESGGGLVQAGGSLRLSCADSGRTIYSNAMGWNIQAPGKERELVAAITGSSGSTYYADSVKGRFTISRDNAKNTVYLQMYSLKPEDTAVYYCAASCYGSLVRQLRLRGQGTQVTVSS | low polyreactivity |
| QVQLVESGGGLVQAGGSLRLSCADSGSIFGINTMGWYRQAPGKERELVAAITFGGGSTYYADSVKGRFTISRDNAKNTVYLQMNSLKPEDTAVYYCNRLGVYWVGTEFDYWGQGTQVTVSS | low polyreactivity |
| QVQLVESGGGLVQAGGSLRLSCADSGSIFGVYTRGWYSQAPGKERELVAAISGSGGSTYYADSVMGRFTISRDNAKNTVYFQMNSLIPEDTGVDYCATRFPNIPPYDSWGQGTQVTVSS | low polyreactivity |
| QVQLVESGGGLVQAGGSLRLSCADSGSIFGYNAMGWYRQAPGKEREFVAAISWSGGRTYYADSVKGRFTISRDNAKNTVYLQMNSLKPEDTAVYYCAAPSRPAPRFDYWGQGTQVTVSS | low polyreactivity |
| QVQLVESGGGLVQAGGSLRLSCADSGSIFLFNAMGWYRQAPGKERELVAAINRDDSTYYADSVKGRFTISRDNAKNTVYLQMNSLKPEDTAVYYCAAPVLHASYGYGYWGQGTQVTVSS | low polyreactivity |
| QVQLVESGGGLVQAGGSLRLSCADSGSIFNGNTMGWYRQAPGKERELVAAITSGGRTYYADSVKGRFTISRDNAKNTVYLQMNSLKPEDTAVYYCATRNPYYRSYYSYDYWGQGTQVTVSS | high polyreactivity |
| QVQLVESGGGLVQAGGSLRLSCADSGSIFQRYAVGWYRQAPGKEREVVAAFTASGGSTYYADSVKGRFTISRDNAKNTVYLQMNILKPEDTAVYYCATDSYWRQDLYRYEYWGQGTQVTVSS | high polyreactivity |
| QVQLVESGGGLVQAGGSLRLSCADSGSIFRVNAMGWYRQAPGKDRELVAAISSGGSTHYADSVKGRFTISRDNAKNTVYLQMNSLKPEDTAVYYCAVRYALVPYLWYYWGQGTQVTVSS | high polyreactivity |
| QVQLVESGGGLVQAGGSLRLSCADSGSIFRYNAMGWSRQAPGKERELVAAISGSGGSTYYADSVKGRFTISRDNAKNTVYLQRNSLKPEDTAVYYCNTRVYHYHYSYYPGGYWGQGTQVTVSS | high polyreactivity |

| Sequence | polyreactivity (PSR sort gate) |
| --- | --- |
| QVQLVESGGGLVQAGGSLRLSCADSGSTFGYYAMGSYRQAPGKERELVAAITSTGRTKYADSVKGRVTISRDNAKNTVNLQMNSLKPEDTAVYYCAADIWGQGTQVTVSS | high polyreactivity |
| QVQLVESGGGLVQAGGSLRLSCADSGSTFLVYSMGWYRQAPGKERELVAVIDNGGDTYYADSVKGRFTISRDNAKNTVYLQMNSLKPEDTEVYYCAADLSYLGYWEYDYWGQGSQVTVSS | low polyreactivity |
| QVQLVESGGGLVQAGGSLRLSCADSGSTFTRYGMGWYRQAPGKERELVAAITTSGSSTYYADSVKGRYTISRDNAKNTVYLQMNSLKPEDTAVYYCAADWSSWGFDYWGQGTQVTVSS | low polyreactivity |
| QVQLVESGGGLVQAGGSLRLSCADSGSTFWYNAMGWYRQAPGKERELVAAITWSASRTYYADSVKGRFTISRDNAKNTVYLQMNSLKPEDTAVYYCAKASPRYKYFTGDYWGQGTQVTVSS | high polyreactivity |
| QVQLVESGGGLVQAGGSLRLSCADSGSTLQVNAMGWYRQAPGKERELVATISFSGGSTYYADSVKGRFTISRDNAKNTVYLQMNSLNPEDTAVYYCNADSFVSWYNQFWYQATYDYWGQGTQVTVSS | low polyreactivity |
| QVQLVESGGGLVQAGGSLRLSCADSGSTPVYAMGWYIQAPGKERELVAAIRRRASSTYYADSVKGRLTISRDNAKNTVYLQMNSLKPEDTAVYYCAVGRLNGVLLGYWGQGTQVTVSS | high polyreactivity |
| QVQLVESGGGLVQAGGSLRLSCADSVIIFRVYVMGCYRQAPGKERELVDAISTSGGRTSYADSVKGRFTISRDNAKNTVYLQMNSLKPEDTAVYYCAARPLYSYSQWGYGYWGQGTQVTVSS | high polyreactivity |
| QVQLVESGGGLVQAGGSLRLSCADTGSTFYNYAMGWYRQAHGKERELVAAISSGGSTNYADSVKGLFTISRDNAKNTVYLKMNSLKPEDTAVYYCARRHRVYTSRIGHDYWGQGTQGTVSS | low polyreactivity |
| QVQLVESGGGLVQAGGSLRLSCAGLRIYLPGYARGWYRQAPGKERELVAVISGSGSGTYYADSVKGRFTISRDNAKNTVYLQMNSLKPEDTAVYYCAADDVGRGSTPYDYWGQGTQVTVSS | high polyreactivity |
| QVQLVESGGGLVQAGGSLRLSCAGSGFIFHLYAMGWYRPAPGKERELVAAIRISDGSTYYADSVKGRFTISRDNAKNTVYLLMNSLKPEDTAVYYCNRVRSSYVYVSRFDYWGQGTQVTVSS | high polyreactivity |
| QVQLVESGGGLVQAGGSLRLSCAGSGFTFAYYAMGWYRQAPGKERELVAAITRGGGRTFYADSVKGRFTISRDNAKNTVYLQMNSLKPEDTAVYYCAAVKDTTNSRGYGYWGQGTQVTVSS | high polyreactivity |
| QVQLVESGGGLVQAGGSLRLSCAGSGFTFGKNAMGWYRQAPGKERELVAANSGRGGRTFYADSVKGRFTISRDNAKNTVYLQMNSLKPEDTADYYCAAQRYYDNQYPYEYWGQGTQVTVSS | high polyreactivity |
| QVQLVESGGGLVQAGGSLRLSCAGSGGIIGSNAMGWYRQAPGKERELVAAINTRGGRTYYADSVKWRFTISRDNAKNTVYLQMNILKPEDTAVYYCATVSYSSRRDRYDYWGQGTQVTVSS | high polyreactivity |
| QVQLVESGGGLVQAGGSLRLSCAGSGRTFQYYAMGCYRQAPGKEMELVAGITGGGSTYYADSVKGRFTISRDNAKNTVYLQMNSLKPEDTAVYYCAADRSYYGYGYWGQGTQVTVSS | low polyreactivity |
| QVQLVESGGGLVQAGGSLRLSCAGSGRTLVLYDRGWSRQAHGKARELVAAITWSGDSTYYADSVKGRFTISRDNAKNTVYLQMNSLKPEDTQVYYCSATYLNAKRGLRDDYWGQGTQVTVSS | low polyreactivity |
| QVQLVESGGGLVQAGGSLRLSCAHSGFTFTYYAMGWYRQAPGKEREFVAGISRSGGSTYYADSVKGRFTISRDIAKNTVYLQMNSLKPEDTAVYYCAATAYSPRGKRYDSWGQGTQVTVSS | high polyreactivity |
| QVQLVESGGGLVQAGGSLRLSCAPAGRTFNGYAMGWYRQAPGKERELVASITLRGGSTYYADSVKGRFTISRDNAKNTVYLQMNSLKPEDTAVYYCNARPHTRRYTFTYGYWGQGTQVTVSS | high polyreactivity |
| QVQLVESGGGLVQAGGSLRLSCAPSGFIFDYNAMGWYRQAPGKERELVAAISISGGGTYYADSVKGRFTISRDNAKNTVYLQMNSLKPEDTAVYYCATAGRYDAYDYWGQGTQVTVSS | low polyreactivity |
| QVQLVESGGGLVQAGGSLRLSCAPSGFIFEGNAMGWYRQAPGKERELVATISRSGGRTNYADSVKGRFTISRDNAKNTVYLQMNSLKPEDTAVYYCAAAYLRRVAYDYWGQGTQVTVSS | high polyreactivity |
| QVQLVESGGGLVQAGGSLRLSCAPSGFIFNRNTMGWYRQAPGKERELVAAISFRGTSTYYADSVKGRFTISRDNAKNTVYLQMNSLKPEDTAVYYCNRARILVWSKYGYWGQGTQVNVSS | high polyreactivity |
| QVQLVESGGGLVQAGGSLRLSCAPSGFIFTLYAMGWYRQAPGKERELVASISSGGSTNYADSVKGRFTISRDNAKNTVYLQMHSLKPEATAVYYCDAYYYSKSDRFSGRYGRYYWGQVTQVTVSS | high polyreactivity |
